Values of other authors, collected in US20060188964A1, “Processing for producing and crystallizing G-protein coupled receptors” (priority 2004, published 2006).

System: insulin action in the liver
Details: mice; insulin clamp; recombinant protein from HEK-293T cells

B1: resistin: mouse resistin, a highly disulfide-linked hormone naturally secreted from adipocytes; recombinant, hexameric (protein, UniProt Q99P87 21-114, looked up)
Resistin: SSMPLCPIDEAIDKKIKQDFNSLFPNAIKNIGLNCWTVSSRGKLASCPEGTAVLSCSCGSACGSWDIREEKVCHCQCARIDWTAARCCKLQVAS
For B1, the “effect on insulin action” value is listed as “potent antagonist of insulin action in the liver”.
